Test system: Saccharomyces cerevisiae
Assay: transcriptional activation domain activity (GFP:mCherry ratio, weighted mean of sorted bins, harmonized to initial dataset scale) (arbitrary fluorescence ratio units); higher = stronger transcriptional activation
Settings: beta-estradiol 1 µM; induction time 4 h
Protocol: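 53-aa protein tiles (fungal proteins plus yeast TF control tiles) fused C-terminally to a DBD-estrogen-binding domain-mCherry synthetic TF, integrated in S. cerevisiae (URA3 locus) with a GFP reporter. Cells were induced with 1 uM beta-estradiol for 4 h at 30 C, FACS-sorted into 8 bins by GFP:mCherry ratio and barcodes sequenced. Activity is the read-weighted mean bin fluorescence (GFP:mCherry), averaged over barcodes (median 12); tiles under 50 reads were discarded. New active-learning values were harmonized by linear fit onto the scale of the initial (Hummel et al.) dataset. The assay saturates at low and high signal.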

Row | Sequence | transcriptional activation domain activity
1 | APSRRTGRTSTAGSASESRPTSSCTSPRRPPTPPARPPASPRTRRTSPRRPSA | 31000
2 | APSSSAAADGLTSPKPTGTRAALRSILREEGAAGLLRGLSPRVAKVAPACGMM | 42700
3 | APTAARVVPSACPSSVTSRATATATMTSPGGGSRSSSRTAAAAAPTGAAVARC | 48400
4 | APTDETGDAETKPRGRGRPKGSGTAKKAESQPESAEPTTARRGRKRASAAAES | 43400
5 | APTLNYELARKFIENSEDALHNSETMDLLGTLSHGNDFALEYNFDFTLLNEID | 121000
6 | APTTSKKRGRKADTNSDDAGSPSEPRRLRRSHEACARCRSKKIKASPVGRHRP | 30900
7 | APVAEPVPVASTSSEVKKDEEEADEDEEDDNVASIEAKIAAARSRLSATHCLF | 10900
8 | AQEAIAEQGEERGDGAGQEKAPVGKRAAEDPAAAPRGSAKRKADKGERSGAEQ | 7850
9 | AQEEFRTYIQEHLVAEQVIAADESSKDDHTIIQHFGRAPHVLWLLLVLMAIWL | 78200
10 | AQKVKNESDTDERPAPVKKGRKAATSKVKDESEDEAPAPAPAKRGRRAAAVKA | 47500
11 | AQLHHRTWLIHWSLFPFFNFEPAKETLTEMFFSPAYINTIQTNCPWILRYLAA | 56700
12 | AQLLQRTWLIHWSLFVFFNHPRGRDYIVDLLFQPNYINSIQMACPWILRYLTA | 45100
13 | AQLLRLAHIHQIRHMVHIFSPVWYRPAVIYCFIAICFIVVLNIQALLSIVWSS | 45900
14 | AQLTLRAIVSSKEAGVIIGKGGKNVADLRDETGVKAGVSKVVQGVHDRVLTIT | 29600
15 | AQPKTEAPKKVAKPRAKKGEAAEGEVKKGGRGKKRSAEGEEKAEEKAEDKPAE | 30600
16 | AQPPAIEGKKSKKGEAPAAEVQKKEKKEKKPAEEGASKKGGSAKAAAAPAEDA | 9790
17 | AQPSAGFGQPSTIGAKPNPFGAPAFGQPAQPAGPAFGQPSQPTTTAAFGQPSQ | 29900
18 | AQQPQKKPGAPKPKGAVRAKSGCYTCRIRRKKCDENPNAEGACQTCVRLRLQC | 66200
19 | AQRHLLKCIVFRTEKSLINFVPELTEAKARDIRMLHFYPPALQRAALILLVKT | 47500
20 | AQSSPVRASPHPADSPSKPAAKPVSKPATAAPPAASKPTTAAAPKAAAAKPVS | 27200

Row | Sequence | transcriptional activation domain activity
21 | AQSTSVVLVFGSDEKKVKEIGEGLKSKLGIKGGGKGTRWSGKFTGVWKDAREG | 46700
22 | ARAAAQNDDGTPKKGRGRPRKAAAAAATSDEEPAATTPKEPKKRGRKPKAVEP | 36000
23 | ARAEELGARVSTGRRVVDVRCSSRGEEGSAAVAVCADGSRYAADLVVGADGVH | 51600
24 | ARAYISLCWRMIVTKGLHRPPVSSVVDKALRKRQLKLLMVLYYNDFTNAVYSG | 52300
25 | ARDDGGGEGAAGETHQAQEARRVLDAGGRARAGAGALRAGPQQHPAPARALRP | 14300
26 | ARDMLEDTFLIPKNLYAVHGPGISVKALEIADALVDVVNQYDQNAESEAWNFL | 112000
27 | AREGARIRIVNRTVTVGKRTMSARSEVYDADNSRLVASGSHSKMTGSQPETRL | 17700
28 | AREIISAGWAKVHDSGSRRNANSQPEEEEEGGWKAKLRELQEEAKAAARGVWG | 35300
29 | ARFNLYLLSWLHVLSAKSASLGSSKAWWIRPAEIAMMSCYWYIFGYLLLWCTL | 65800
30 | ARGEKNPPMTQKDLATKVNEKPSVINDYESGRAVPDQKVLAKLERALGVKLRG | 50400
31 | ARGGEKKRREPGRGKRRTGGEERGGRRKTRRANAGETGGERRPRGATPGRKPA | 38500
32 | ARGMYLMVDVVANQFGILCSRADGTSIDDFDFSGLWPFSSSSYFHPMCWLYWL | 64000
33 | ARGTTTPPPAPSTGSPSAPAAASRSSTGRSSATASCRTARCARASGRSAPGAG | 42900
34 | ARKAFLLIEHMLELEGPPLIWNLLEILHNIMHLKQGRLFNMLIIHLMSLARSH | 67400
35 | ARLLPDTIHLYILVVASLVNTLCVLFLDCCFLLLFFLFFYFFYPFLLFLFASF | 41200
36 | ARLRALEIIRAGHEGGYDGFFWGAWIPGLFHGKMTDIIALLLTHWGNVRNPAS | 65700
37 | ARNGSSSGDILFSNGAHDMINNISTWTNNSVLDALNSKSILQTIFPQSQEPSS | 58200
38 | ARQGVGMMQSNVVFFFFFSFSFLFLFFFFSFSFLFLFFFPFSIIPTCSSLAVF | 44800
39 | ARQSDDDGQVKVYQRGSASLVAMLLTNLAPNETLIALINLIADRPWLKALYAL | 80500

Reference: the supplement of paper PMC12636428
